{"source": "the supplement of paper PMC10126150", "note": "± gives the standard deviation of the averaged measurements.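 Note: ATP exposure 15 min at 22 °C before imaging.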", "data": [{"tested_on": "ATP", "assay": "switch fluorescence ratio, 500 uM ATP over buffer (Cy3 cluster intensity, sum of 5 cycles each) (fold (ratio)); higher = stronger signal-on switching upon ATP binding; sequences stand for … in TCGTCGGCAGCGTCAGATGTGTATAAGAGACAGTTTTTTTTTTTTTTTTTTTTTTTTT…TC", "details": "aptamer strand: ATP DNA aptamer (quencher-CACCTGGGGGAGTATTGCGGAGGAAGG + anchor), 100 nM annealed; ATP concentration: 500 uM", "how_it_was_run": "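Clusters carrying Cy3-labelled switching strands on a modified Illumina MiSeq flow-cell were annealed to 100 nM quencher-labelled ATP aptamer and imaged in selection buffer. They were imaged again after 15 min with 500 uM ATP at 22 °C, over five buffer/ATP cycles with NaOH stripping and re-annealing in between. For each cluster, the fluorescence ratio is the summed Cy3 intensity of the target cycles divided by that of the buffer cycles, averaged per switch-domain sequence. Clusters outside 100-1000 RFU were left out.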", "values": [{"sequence": "TACCTCTTAA", "switch fluorescence ratio": "1.05 ± 0.026"}, {"sequence": "CGTCCGAAGG", "switch fluorescence ratio": "1.03 ± 0.041"}, {"sequence": "TTTTAAATGC", "switch fluorescence ratio": "1.07 ± 0.13"}, {"sequence": "AGGAGTCTAT", "switch fluorescence ratio": "0.9774 ± 0.0094"}, {"sequence": "CGGGGAAGAT", "switch fluorescence ratio": "0.981 ± 0.016"}, {"sequence": "ATCTTAGTTT", "switch fluorescence ratio": "1 ± 0.025"}, {"sequence": "CTGGGTTGGT", "switch fluorescence ratio": "0.972 ± 0.024"}, {"sequence": "TAGTTAGTGA", "switch fluorescence ratio": "0.986 ± 0.034"}, {"sequence": "ATGGGCTAGC", "switch fluorescence ratio": "1.009 ± 0.0014"}, {"sequence": "CACGTAATTA", "switch fluorescence ratio": "1.25 ± 0.048"}, {"sequence": "CTCAGAATAT", "switch fluorescence ratio": "1.046 ± 0.0086"}, {"sequence": "ACTGTTTTTC", "switch fluorescence ratio": "1 ± 0.013"}, {"sequence": "ACAGTGTGTG", "switch fluorescence ratio": "1.02 ± 0.027"}, {"sequence": "ATCTTTGTGT", "switch fluorescence ratio": "1.01 ± 0.043"}, {"sequence": "AATGGCTTTG", "switch fluorescence ratio": "1.029 ± 0.0062"}, {"sequence": "CGAAACATGA", "switch fluorescence ratio": "1.01 ± 0.014"}, {"sequence": "TCGTTCTGAA", "switch fluorescence ratio": "0.974 ± 0.022"}, {"sequence": "ACGCGCCGGG", "switch fluorescence ratio": "1.063 ± 0.0039"}, {"sequence": "TCGAGCTTGT", "switch fluorescence ratio": "1 ± 0.024"}, {"sequence": "TTGTTGCAGC", "switch fluorescence ratio": "1.02 ± 0.035"}, {"sequence": "AACGTGTATT", "switch fluorescence ratio": "1.1 ± 0.12"}, {"sequence": "AATAATAGGT", "switch fluorescence ratio": "1.016 ± 0.007"}, {"sequence": "AGTGGGGAAT", "switch fluorescence ratio": "1.01 ± 0.049"}, {"sequence": "CGATCTTGTG", "switch fluorescence ratio": "0.988 ± 0.01"}, {"sequence": "AGGGGCGTAC", "switch fluorescence ratio": "1.07 ± 0.022"}, {"sequence": "GCGTAAGGCC", "switch fluorescence ratio": "1.14 ± 0.21"}, {"sequence": "TATAAGTATA", "switch fluorescence ratio": "1.02 ± 0.011"}, {"sequence": "CGGCTGGCGG", "switch fluorescence ratio": "0.997 ± 0.026"}, {"sequence": "TGAGGGATGG", "switch fluorescence ratio": "1.01 ± 0.017"}, {"sequence": "TTTATTTGCG", "switch fluorescence ratio": "0.9875 ± 0.0067"}, {"sequence": "TAAAGAGTGT", "switch fluorescence ratio": "1.01 ± 0.0042"}, {"sequence": "CGATGGGTAA", "switch fluorescence ratio": "1 ± 0.033"}, {"sequence": "TGGGTTTTCT", "switch fluorescence ratio": "1.08 ± 0.28"}, {"sequence": "AATGGCGTTG", "switch fluorescence ratio": "1 ± 0.057"}, {"sequence": "GCAGGGGAAG", "switch fluorescence ratio": "0.99 ± 0.019"}, {"sequence": "TTGAGTCAAT", "switch fluorescence ratio": "1.044 ± 0.0078"}, {"sequence": "TGTTGTATGT", "switch fluorescence ratio": "0.994 ± 0.015"}, {"sequence": "TGTGTTCCCT", "switch fluorescence ratio": "0.982 ± 0.028"}, {"sequence": "GGACCCGCCG", "switch fluorescence ratio": "1.025 ± 0.0016"}, {"sequence": "GAGAATAGCG", "switch fluorescence ratio": "0.988 ± 0.028"}, {"sequence": "AGTTTTACAG", "switch fluorescence ratio": "1.01 ± 0.02"}, {"sequence": "TTTTATATGT", "switch fluorescence ratio": "1.02 ± 0.028"}, {"sequence": "TAAAATTAGT", "switch fluorescence ratio": "0.9938 ± 0.0073"}, {"sequence": "TCGGGGGGGG", "switch fluorescence ratio": "1 ± 0.036"}, {"sequence": "TTAATAATAA", "switch fluorescence ratio": "1 ± 0.034"}, {"sequence": "AAATTCGTAT", "switch fluorescence ratio": "0.9976 ± 0.0068"}, {"sequence": "TGGGGCGCTA", "switch fluorescence ratio": "1.07 ± 0.11"}, {"sequence": "GAAAGATTAT", "switch fluorescence ratio": "1.03 ± 0.02"}, {"sequence": "TGAAGTAACA", "switch fluorescence ratio": "1.06 ± 0.038"}, {"sequence": "TACATTGGGC", "switch fluorescence ratio": "1 ± 0.013"}, {"sequence": "GCTCTACTGG", "switch fluorescence ratio": "1.024 ± 0.0021"}, {"sequence": "AATTCAGATG", "switch fluorescence ratio": "0.9623 ± 0.0077"}, {"sequence": "ACCGGAGTTC", "switch fluorescence ratio": "1.23 ± 0.014"}, {"sequence": "TTCTGAGCTT", "switch fluorescence ratio": "1.07 ± 0.025"}, {"sequence": "ACGGTTCGGA", "switch fluorescence ratio": "1.02 ± 0.019"}, {"sequence": "GGTGGTTGGA", "switch fluorescence ratio": "1.02 ± 0.04"}, {"sequence": "TGCAAGGGGT", "switch fluorescence ratio": "1.14 ± 0.16"}, {"sequence": "TGGATCAATT", "switch fluorescence ratio": "1.01 ± 0.011"}, {"sequence": "GGCGTCAGAC", "switch fluorescence ratio": "1 ± 0.031"}, {"sequence": "GACGCTCATG", "switch fluorescence ratio": "1.04 ± 0.033"}, {"sequence": "CCGGAAACCA", "switch fluorescence ratio": "1.01 ± 0.021"}, {"sequence": "ATTGACATGT", "switch fluorescence ratio": "1.03 ± 0.037"}, {"sequence": "CTTGGGATTA", "switch fluorescence ratio": "1.03 ± 0.016"}, {"sequence": "TAAACTTGAC", "switch fluorescence ratio": "1.16 ± 0.1"}, {"sequence": "GGGATATAGT", "switch fluorescence ratio": "0.9696 ± 0.0044"}, {"sequence": "GGCCTGGGTA", "switch fluorescence ratio": "1 ± 0.031"}, {"sequence": "TAGAAGAAGG", "switch fluorescence ratio": "0.9842 ± 0.0031"}, {"sequence": "AGAGTTTGGT", "switch fluorescence ratio": "0.9847 ± 0.0013"}, {"sequence": "CAACTGGGGC", "switch fluorescence ratio": "1.06 ± 0.022"}, {"sequence": "GACCATCTGT", "switch fluorescence ratio": "1.02 ± 0.024"}, {"sequence": "TGTTCCGGGA", "switch fluorescence ratio": "1.04 ± 0.023"}, {"sequence": "AGATGTTCCG", "switch fluorescence ratio": "1.05 ± 0.018"}, {"sequence": "TAAAAGAACT", "switch fluorescence ratio": "1.03 ± 0.038"}, {"sequence": "TATATTCTTT", "switch fluorescence ratio": "1 ± 0.023"}, {"sequence": "CCAGGATTAT", "switch fluorescence ratio": "1.027 ± 0.0034"}, {"sequence": "GGATCTTAGT", "switch fluorescence ratio": "0.996 ± 0.013"}, {"sequence": "CAGTGGATCG", "switch fluorescence ratio": "1.008 ± 0.0011"}, {"sequence": "CAGGACACCT", "switch fluorescence ratio": "1.17 ± 0.034"}, {"sequence": "GAGATTGTGA", "switch fluorescence ratio": "0.992 ± 0.039"}, {"sequence": "GAGGTTGGGC", "switch fluorescence ratio": "0.993 ± 0.03"}, {"sequence": "CGAGGATAAA", "switch fluorescence ratio": "0.994 ± 0.027"}, {"sequence": "CGTGCCCGGT", "switch fluorescence ratio": "1.02 ± 0.022"}, {"sequence": "CGTGCACCGG", "switch fluorescence ratio": "1 ± 0.031"}, {"sequence": "CGGGAGCGTT", "switch fluorescence ratio": "1.12 ± 0.18"}, {"sequence": "TCGTTTAGTG", "switch fluorescence ratio": "0.981 ± 0.018"}]}]}
